Experiment: label from the status in PepcDB records

Sequence	protein production
MKTFNESNGTNANVLMVGLTLVQAAAAKGAVCLDGSVPGYHLCRGYGSGANNWIIQLQGGAWCDSIQNCQSRKGSGYGSSTLMEKELAFLGLLSNKAAENPDFYNWNKVKVRYCDGASFDGDSENKAAQLQYRGKRIFLAVMEDLMEKGMRQAKQALLSGCSSGGLSAILRCDDFNNLFPPTTTVKCMSDAGFFLDAVDVSGGHSLRRMYSGVVNTQGLQNTLPPTCTSHIKPFLCFFPQYIINQVKTPLFILNSGFDSWQIGNSLAPPSADKSGSWHNCSFSFRCTASQMHFLEGFKMSMLDALKTFSKFSKNGVLITSGWAHCQAERQDTWFPGYSGAGKAKGIAVAVGDWYFERTKQNSS	failed
MKTIAVLLTALLLATGCGNKESTGETASDEPEIVMMDESTSVGELPSILKEGLSNKEQDELKKQIMPILDDGLTPEQRFLNLRKDAEAGNAEAQNSLGSMYFSGEAISRDAQGKVKDKDPETAAGWFFRAAEQGHAGAQFNLGLLYFSGEGVTRDTAKAVELFTKSAEQGNIDAQNNLGVIYLMGEGVKQNTDKAIEWFEKAAEQGNEEAIKNLEAVRASQQDSKEAADKQK	failed
MKTIRSIGRFAVLAAMAALFAGCAGQQVKSEQRFFWPPLPERPRIEWLNAYSSQNDFPKSATEKFLTTIIGEEEGISLSKPITVRSDGRGKVYVGDPGAPGVYVFDFVNNIMRPFGKAEAEARIEQPVGIAIDENGRIYVSDTKKAAIMVFHQDETPAALINLKGMVEKIGDIAYDRIGKHLLALDVRGHKVLVLSLRGELLSSFGNRGTKPGEFNFPSALTVNNKGEIIVADAMNARIQIFSSDGKFLRMFGQRGDSPGTLQLIKGVAVDSDDNIYVTDGKGHKFEIFSTTGDYLLTVGGAFSALTTGKTAPGGFVIPQGIDIDKDNMIYVVDQLNRRFQVFRYISDSYLKANPIPGYTPSP	failed
MKTKAKISSRWLRFRALLIDIFLIYIPILYLFYFLLGSKEAFLNNHFITTLCTFLFGLIQAIFLTKKAQSPGLKAYDLYLIDIKTGKKLSFLRILLRYVIFIISFGLLFGLFVSFVRKDRLNLHDILTQSCIATKSIKKG	failed
MKTKTLNTNRFIKLSLLSAIAVILMYIDFPVIPIFPWLKIDLSDVPALMGAFAFGPLAGVIIELMKNLLILIVKGTGTGFVGELANFLVGVALVWPAALVYKKNKTKKTAILGMVLGVLCIEVVGILANVYLLLPAYGMAMSKAELMQYVTVGLIPFNGIKSILVCGITYALYKKVSVSIFKVEPMLDKPKQMKENLG	failed
MKTLLIAWHSRTGAARQMAQALERGALAAALALEQPGQLRVRRQAASRTDAAALLAADGYLFCAPENLGSLSGAMKECFDRCYYGVLDRIQGRPYGVAISAGTDGEGAARQVERICTGWRLRAAAPPLIARSGAQTPEQIAAPKQVPADVLARCEELGGLLAATLLMGSLEHHHHHH	failed
MKTLLSRSTAVPAKLLAATAITATLSAPAFSADANVESLVKAAQKEGSIYSVGMPDSWANWKDTWADLQSNYGLKHQDTDMSSAQEIAKFEAEKKNATADIGDVGFAFARVAVKKGVTQPYKPTTWNDIPDWAKDKDGHWALAYTGTISFISNNNLVKDAPKTWGDLLKGDYKVTVGDVGVAAQANNAVLAAAFANGGDESNLKPAIKFFAELAKQGRLSFTDPNIANLEKGEVEVAIMWDFNALNYRDKIDRERFTVTIPQDGSVISGYTTIINKYAKNPNAAKLAREYIFSDQGQINLAEGYARPIRTSITLPKSVQDKLIANDQYSNVHPVTDFSAWEKSARKLPRQWQESVLIHQQ	failed
MKTLVDHLSQYANYHRDPRNIATHFVGIPMIVLAVTILLSRPGWEIAGMWLSPALLAAAASVWFYLRLDLRFGLVMGLLLGLCLWVGEALAVQSTTLWLGAGLGAFVVGWIIQFIGHYYEGRKPAFVDDVSGLIIGPLFVVAEAAFMLGLCPTLKRAVEANAGPIAMRQKKASV	failed
MKTLVHLSDLHFGKTESHLVDAIAAEVRAVDSDLLVVSGDLTQRARKDEFLQARAFLDSLPGPRIVVPGNHDVPLWNVFARAMTPLSRYRRYIEADTDPFYADSEVAVVGINTARSLTIKNGRINVRQLKAATEKFAYMSDDITRIVVTHHPFEGLDLESDDGIVARADLAMDAFSRSGVDIILSGHQHLHRAGSSARRYLIDGYAALLVQAGTAVSSRVRQAANSFNIIRIEHPRISIECRAWQSLQSGFETSASYSFRQGSGGWEPALEHHHHHH	failed
MKTLVIVAHPNLETSVVHKRWVEELKKYPEKYTVHELSDVYPDGNIDAEKEQKLVESHGNLVLQFPIYWFNCPPLLKKWLDDVLAYGWAYGSNGGDRLNNRKVALGVSAGIKEEDYRENGRYRYTLEQILVPFETTFRYCRADYRSFFAFYGKEKEPGGNEEEENEPGAGELEKSARDYLHFIDHM	failed
MKTREEKMNKTILLLACLLGLVACSSQYIMSTKDGKMITSDSKPKLDKTTGMYLYYDEDGREVMIKQEDVTQIIERLEHHHHHH	not failed
MKTRLMEAWKAHRSVMVQMPTGTGKTHLLASVVSEFVSSAGSGVWLIAHRRELVAQMEETLAKYGIRREDTPVRVMSVQWLSRHWNEAGDAPGLIVIDEAHHALAASYTEMWKRYPAAKKLGVTATPCRLNRRGFTELFEVLVTSWSIAEFIEKGVLSVFDYVSIRPGSEERRLIDGLEKRGADGDYQVKEMDAVLNRRPGIERLYRSVRQFASGKKGMVYAISIEHARRIAEYYSRRGVNAVAVDSKTPAMERKRMVEEFRHGKIEVLVNVDVFSEGFDCPDVEFVQLARPTLSLAKYLQQVGRGLRRSEGKEACMLIDNVGLYRIFGLPTQRWNWDAMFRGRMAGKGSLPGRMNCDASVTAFPVVERPAEAGGDLVVVMEHGRLLSSIREQALPDEKEQSPSCRLRAFVDKETGLWGLEKGDEMLPDASFKEVLSIKGRFAVGRLRNGCVRVLDDTGALVAEPGHCREVRFLKDDLLQVRHAGNSVSYVDLRNGRCYSVRPRVLRYGSIELLQANRTYYSRTRQVYANTCGLPSSSIVWMGFYVKMYDGRVPSRCRRMEDGGFCCEPQVCLLEGDEERAYYLSGRLPDQSIVVMDEEGRYYHVEKGHGKRYVACLEHHHHHH	failed
MKTRSSDAEGDSRGKMIAPVGEGNGGRKRKLVQSNEQKNDIQREEDGRAKRRIVQSSDQKNGKILRGIRGCVSPRCSAQTYQSRFSWYEQDIWTYISRFLDGKSLVKLGATNKWFYKIAMEDTVWRFACLRDLQVPVPFPVSSTWIKIYASAFDGSHSYLFRQKEKHIGAFVLDSRTSLLTESLSGRLKFPREGTIERMLQSSGSCLINDIKSGIWIADLQLVRCPVCDLSTCDGTMQTLDARHIELFLSEGYKDGSWDYNLIGSHKLQKNASAACGAIFDLKHLKESSYSGILNLKSWTGESNDSQPKAVIAPHAVAVHTRLQENEGILVKYHTMKAGTDGDIVSIRISQQLL	failed
MKTSRSSIGKSIFLAATMLATGSAAWAGQAPGALSSPDIPISHHDRVYAAEQFSNTVSVTDPVDNKLLGVIRLGDPQPGNFSPLYKGQVLVHGMGFSPDHKMLAVVSIGSNSVTFIDTATNAVKHTTYIGRSPHEAFFTPDGKEVWVTVRGENYISVIDPQSFEERRRITTPSGPGMQMFSPDGKYAYICSSFNPETDVVAVAEHKIIAKVKQESPFCPNIAVTPDGNQVWFTLKDTGRTQVFNARPPFNPIRTIDTGPITNHVNFAHTARGTFAYVTIGGLNQVKVFRTDDFSQVATIPVGNLPHGVWPSGDGTRIYVGLENADALAAIDTATNSVVANVPIGQAPQAIAYVPGAAPNPDDRQNLQALGVAGQFAHLALASRDGSKDGKAPTSVSLFDQGLIQILQASVTGLEPRQKYVLALAEHGDGSGTLQPLAAFMTNPAGSAIVNAAGPIRQIVDQSAAAARRYLVIASGDVAMPGEAVQIEAQ	failed
MKTVLAFGDSLTWGADPATGLRHPVEHRWPDVLEAELAGKAKVHPEGLGGRTTCYDDHAGPACRNGARALEVALSCHMPLDLVIIMLGTNDIKPVHGGRAEAAVSGMRRLAQIVETFIYKPREAVPKLLIVAPPPCVAGPGGEPAGGRDIEQSMRLAPLYRKLAAELGHHFFDAGSVASASPVDGVHLDASATAAIGRALAAPVRDILG	not failed
MKVAVLDFGKTNSKLFVFGQDGGILDERRTQPKWTHQDGFSVLDEAALHDWALGAVTEAVENHGVEGVMVSGHGCTFALVDDAALTHPILDYEQEPPAEIAARIDHRIPDFAETFSPRLPLGFNYGRHMLWVQEVDPDAFAAAKSILGYPQYWSWRLGGRPVSEVSYLGCHSHLWAPRSQDFSSLVDAEGWRGQMPAFARAGAVIGERRLGSSSRPIAIHNGVHDSNAALHAYRLEHHHHHH	not failed
MKVDVDEKTYIITMANDITKLYEENKRNLHYSITDPLTGAYNRKYLNDRFDIFIGDYIVLIDLDNFKMINDYEGHNVGDKILCDFVSLLNKELINSTSIIRLGGDEFIVIFSSDVDKNYVYSQLEALRENFLKVFSKYKYLSFSYGVDTVKRNLKLTIVELDKKMYKNKEKNKKKFDKNLEHHHHHH	not failed
MKVEEILEKALELVIPDEEEVRKGREAEEELRRRLDELGVEYVFVGSYARNTWLKGSLEIDVFLLFPEEFSKEELRERGLEIGKAVLDSYEIRYAEHPYVHGVVKGVEVDVVPCYKLKEPKNIKSAVDRTPFHHKWLEGRIKGKENEVRLLKGFLKANGIYGAEYKVRGFSGYLCELLIVFYGSFLETVKNARRWTRRTVIDVAKGEVRKGEEFFVVDPVDEKRNVAANLSLDNLARFVHLCREFMEAPSLGFFKPKHPLEIEPERLRKIVEERGTAVFAVKFRKPDIVDDNLYPQLERASRKIFEFLERENFMPLRSAFKASEEFCYLLFECQIKEISRVFRRMGPQFEDERNVKKFLSRNRAFRPFIENGRWWAFEMRKFTTPEEGVRSYASTHWHTLGKNVGESIREYFEIISGEKLFKEPVTAELCEMMGVKD	not failed
MKVELPQGGYQGLAGDGVVEFRGVPFALPPVGELRFKAPRPLPDSDRSVNADRYPLPSLQVKNPLMGVEDSGEDCLYLNIWVPEGEGPFPVMLWYHGGGYIAGSVSQPLYNGAALAASQKVVVVHAAYRLGAHGFADFATIAPELEADSNLGLRDQVAALEWVNRHIEAFGGRPDRVTLFGESAGGFSVATLMATPRARPLFQAAIVQSGAGDFALAPEEVAKVTSAFVEALPGDGSAADKLRQADPKAWIAAQNQALRTLVKRGLRDTTPQFAMNFQPMVDGDLLPRLPVDAIADGEARDIALMASVCRDEYHFFQYAGPMAGFPSVEELRRFDEAEILRRFQRALPQHGQQALSYYQRTVTPDPQRSNMDWFSAMETDRLFRVPTLRLLDAQAAHRDDTRGLQFTWTSQQFGVPMGACHVIDVPFVFGVTDTPAGMFFTGGGEPARALAAEVQKVWGDFAHGRAVQGPAWKDTRRVRQFGPGDAEAALLDADGEALWADIIPVPGTAKPGQGA	not failed
MKVIETKYNGKLEVAEDRLIAFDQGIPAFEDEKEFVLLPFAAGTPYYTLQSTKTVDLAFIIVNPFSFFPEYRVKLPEATIVQLNITNENDVAIFSLLTVKEPFSETTVNLQAPIVINANKQMGKQLVLGDTAYDRKQPLFQKELVLAKEAK	not failed
MKVIGINGSSRKDGNTAILIQTVFEELTKEGIETELIQLSGKNIEGCKACWACHKNRNKQCVITDDFFNECFAKMLVSDGIILGSPVYSAGVTSQMKALIDRASMVLAGNRGLFKHKVGASVVAARRGGAISAFGTLNNFLHSKEMFLVGSSYWNMAYGNAIGEVEQDQEGIDNMKNLGQNMAWILKKIHNS	failed
